Experimental data: patent US20030145350A1, “Method for increasing the content of fatty acids in plants and micro-organisms” (priority 2000, published 2003)
Where two headings read alike, the source gives them in different places.

Assays:
[1] = biological target: T1, Cuphea wrightii KAS IIIa (β-ketoacyl ACP synthase IIIa), recombinant wild-type, GenBank U15935 (Cuphea wrightii, UniProt P49244); assay: Inhibition of recombinant wild-type KAS IIIa by acyl ACPs and acyl CoAs ([1-14C] acetate incorporation into acetoacetyl ACP; Lineweaver-Burk); assay type: biochemical
T1 construct: His6 (N); made in house; host or cells: E. coli BL21(DE3)pLys, pET 15b vector
T1 sequence (P49244 68-400 limits assumed): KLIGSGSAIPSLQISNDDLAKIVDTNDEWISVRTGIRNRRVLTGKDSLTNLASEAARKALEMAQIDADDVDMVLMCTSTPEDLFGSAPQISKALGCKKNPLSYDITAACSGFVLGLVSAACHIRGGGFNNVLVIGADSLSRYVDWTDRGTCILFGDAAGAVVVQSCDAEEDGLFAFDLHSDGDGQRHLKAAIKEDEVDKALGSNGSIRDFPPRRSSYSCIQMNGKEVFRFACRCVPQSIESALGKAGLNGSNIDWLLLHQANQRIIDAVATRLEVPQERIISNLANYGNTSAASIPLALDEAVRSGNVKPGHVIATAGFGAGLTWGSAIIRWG
Method: (§1) Wild-type KAS III and KAS IIIa mutants were expressed with a His6-tag at the N-terminus in E. coli strain BL21(DE3)pLys (Novagen, Madison, USA) and purified by nickel affinity chromatography. Purity of the synthesised KAS IIIs was evaluated by SDS-PAGE. The KAS III concentration was determined by the method of Bradford (M. M. Bradford (1976), Anal. Biochem. 72, p. 248-254).
(§2) The activity of KAS IIIa was analysed by the incorporation of radioactive acetate from [1-^14C] acetyl CoA into acetoacetyl ACP (Brück et al. (1996), Planta 198, p. 271-278). The reaction mix (50 μl) contained 100 mM sodium phosphate, pH 7.6, 10 μM [1-^14C] acetyl CoA, 20 μM malonyl ACP and 2 ng of the recombinant KAS IIIa or the KAS IIIa mutant, respectively. The reaction was initiated by adding the enzyme and was performed for a period of 5 minutes at 30° C.
(§3) In the inhibition studies of the wild-type KAS IIIa the used conditions provided for saturation with respect to the substrates acetyl CoA and […]. As regards the inhibitors non-radioactive acyl ACPs (C2-C16) or acyl CoAs (C3-C12) were added at varying concentrations. The resulting data were analysed by the method of Lineweaver-Burk. The inhibition studies of the KAS IIIa mutants with acyl ACPs were performed with 10 μM non-radioactive dodecanoyl ACP (see FIG. 3).
(§4) The KAS III activity was measured as described above in the presence of varying concentrations of acyl ACP (5-25 μM) or of acyl CoA (10-50 μM).
FIG. 2: Kinetic of the inhibition of wild-type KAS III by dodecanoyl ACP. Double reciprocal plots of the concentration of acetyl CoA (A) and malonyl ACP (B) against the activity of KAS III in the absence (●) and presence of 1 μM (▴), 2.5 μM (▪) and 5 μM (▾) dodecanoyl ACP. The respective substrate partner was maintained at a constant level at 10 μM [1-^14C] acetyl CoA and 20 μM malonyl ACP. The enzyme activity was determined by monitoring the incorporation of [1-^14C] acetate from [1-^14C] acetyl CoA into β-ketobutyryl ACP (n=8).

[2] = biological target: recombinant wild-type Cuphea wrightii β-ketoacyl ACP synthase IIIa (cwKAS IIIa) (Cuphea wrightii); assay: inhibition of KAS IIIa enzyme activity ([1-14C] acetyl CoA incorporation), 5-25 µM acyl ACP, Lineweaver-Burk analysis
[3] = test system: Cuphea wrightii KAS IIIa mutant Ala361Ser (A294S in the mature protein); assay: Inhibition of KAS IIIa mutant Ala361Ser by dodecanoyl ACP; assay type: biochemical
Method: (§5) Then, three point-mutated KAS IIIs were created by the substitution of asparagine^358 by aspartate, alanine^361 by serine and alanine^362 by proline. The amplification of the overlapping DNA fragments of the KAS III mutants was performed by two separate reactions, which each contained 2 ng K3MK-pGEMT plasmid as template, 2.5 U proof-reading Pfu polymerase, 200 μM dNTPs and 50 pmol of each of the primers in a total volume of 50 μl. Each reaction mix contained a flanking primer (Fse5 or Xho3) and the corresponding mutation primer. […]
as §1
(§6) The activity of KAS IIIa was analysed by the incorporation of radioactive acetate from [1-^14C] acetyl CoA into acetoacetyl ACP (Brück et al. (1996), Planta 198, p. 271-278). […]
(§7) In the inhibition studies of the wild-type KAS IIIa the used conditions provided for saturation with respect to the substrates acetyl CoA and malonyl CoA. […] The resulting data were analysed by the method of Lineweaver-Burk. […]

[4] = test system: Cuphea wrightii KAS IIIa mutant Asn358Asp (N291D in the mature protein); assay: Inhibition of KAS IIIa mutant Asn358Asp by dodecanoyl ACP; assay type: biochemical
Method: as §5, §1, §6, §7

[5] = biological target: Cuphea wrightii KAS IIIa mutant Ala^361Ser (Cuphea wrightii); assay: cell-based or functional assay
[6] = biological target: Cuphea wrightii KAS IIIa mutant Asn^358Asp (Cuphea wrightii); assay: cell-based or functional assay
wild-type KAS IIIa = biological target: T2, wild-type KAS IIIa (Cuphea wrightii, UniProt P49244); assay: Inhibition of wild-type KAS IIIa by acyl ACPs and acyl CoAs ([1-14C] acetyl CoA incorporation into acetoacetyl ACP); assay type: biochemical; settings: with respect to acetyl CoA or malonyl CoA; Lineweaver-Burk
T2 construct: His6 (N); made in house; host or cells: E. coli BL21(DE3)pLys, vector pET15b
T2 sequence (P49244 68-400 limits assumed): T1 sequence (P49244 68-400 limits assumed)
Method: as §2, §3, §4
FIG. 2: Kinetic of the inhibition of wild-type KAS III by dodecanoyl ACP. […] The enzyme activity was determined by monitoring the incorporation of [1-^14C] acetate from [1-^14C] acetyl CoA into β-ketobutyryl ACP (n=8).

[7] = acyl CoA 10-50 μM, pH 7.6, 30° C., 5 minutes, Lineweaver-Burk, read-out: Ki (acyl CoAs)
[8] = in the presence of a saturation concentration (10 μM) of dodecanoyl ACP

Chain of dodecanoyl ACP (P0A6A8 2-78): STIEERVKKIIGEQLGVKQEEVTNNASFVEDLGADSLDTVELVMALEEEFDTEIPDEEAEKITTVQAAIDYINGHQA
Chain of acyl ACP, chain length 10 carbon atoms (P0A6A8 2-78): as above
Chain of acyl ACP, chain length 6 carbon atoms (P0A6A8 2-78): as above
Chain of acyl ACP, chain length 2 carbon atoms (P0A6A8 2-78): as above
Chain of acyl ACP, chain length 8 carbon atoms (P0A6A8 2-78): as above
Chain of acyl ACP, chain length 16 carbon atoms (P0A6A8 2-78): as above
Chain of acyl ACP, chain length 14 carbon atoms (P0A6A8 2-78): as above
Chain of acyl ACP, chain length 4 carbon atoms (P0A6A8 2-78): as above

Compound: CCC(=O)SCCNC(=O)CCNC(=O)[C@H](O)C(C)(C)COP(=O)(O)OP(=O)(O)OC[C@H]1O[C@@H](n2cnc3c(N)ncnc32)[C@H](O)[C@@H]1OP(=O)(O)O [acyl CoA C3]
- Ki [1]: 20.8 ± 0.51 µM

Compound: CCCC(=O)SCCNC(=O)CCNC(=O)[C@H](O)C(C)(C)COP(=O)(O)OP(=O)(O)OC[C@H]1O[C@@H](n2cnc3c(N)ncnc32)[C@H](O)[C@@H]1OP(=O)(O)O [acyl CoA C4]
- Ki [1]: 91.9 ± 0.9 µM

Compound: CCCCCC(=O)SCCNC(=O)CCNC(=O)[C@H](O)C(C)(C)COP(=O)(O)OP(=O)(O)OC[C@H]1O[C@@H](n2cnc3c(N)ncnc32)[C@H](O)[C@@H]1OP(=O)(O)O [acyl CoA C6]
- Ki [1, 7]: 42.7 ± 0.3 µM

Compound: CCCCCCCC(=O)SCCNC(=O)CCNC(=O)[C@H](O)C(C)(C)COP(=O)(O)OP(=O)(O)OC[C@H]1O[C@@H](n2cnc3c(N)ncnc32)[C@H](O)[C@@H]1OP(=O)(O)O [acyl CoA C8]
- Ki [1, 7]: 24.4 ± 0.6 µM

Compound: CCCCCCCCCC(=O)SCCNC(=O)CCNC(=O)[C@H](O)C(C)(C)COP(=O)(O)OP(=O)(O)OC[C@H]1O[C@@H](n2cnc3c(N)ncnc32)[C@H](O)[C@@H]1OP(=O)(O)O [acyl CoA C10]
- Ki [1, 7]: 12.5 ± 0.6 µM

Compound: CCCCCCCCCCCC(=O)SCCNC(=O)CCNC(=O)[C@H](O)C(C)(C)COP(=O)(O)OP(=O)(O)OC[C@H]1O[C@@H](n2cnc3c(N)ncnc32)[C@H](O)[C@@H]1OP(=O)(O)O [acyl CoA C12]
- Ki [1, 7]: 20 ± 0.7 µM

Compound: acyl ACP, chain length 2 carbon atoms
- Ki [2]: 2.16 µM

Compound: acyl ACP, chain length 4 carbon atoms
- Ki [2]: 2.9 µM

Compound: acyl ACP, chain length 6 carbon atoms
- Ki [2]: 8 µM

Compound: acyl ACP, chain length 8 carbon atoms
- Ki [2]: 4.1 µM

Compound: acyl ACP, chain length 10 carbon atoms
- Ki [2]: 4.1 µM

Compound: acyl ACP, chain length 14 carbon atoms
- Ki [2]: 4 µM

Compound: acyl ACP, chain length 16 carbon atoms
- Ki [2]: 1.3 µM

Compound: dodecanoyl ACP [listing 1 of 2 here]
- inhibition by acyl ACP (in words) ([3]; 10 μM dodecanoyl ACP): almost not at all inhibited
- initial activity maintained [3, 8]: about 85%
- inhibition by acyl ACP (in words) ([4]; 10 μM dodecanoyl ACP): almost not at all inhibited
- initial activity maintained [4, 8]: about 85%

Compound: dodecanoyl ACP [listing 2 of 2 here]
- initial activity maintained in the presence of a saturation concentration (10 µM) of dodecanoyl ACP [5]: 85%
- initial activity maintained in the presence of a saturation concentration (10 µM) of dodecanoyl ACP [6]: 85%
- Ki [2]: 0.4 µM

Compound: dodecanoyl ACP [acyl ACPs 12]
- type of inhibition of KAS IIIa (wild-type KAS IIIa): not competitive
